Measured values taken from US20240269318A1.

How the values were obtained:
Settings in all cases: remark: other sources report otherwise
[1] = target: T1, recombinant human alpha-synuclein aggregates (ab218819) (human), P37840; test: ELISA on AS aggregates; antibody pre-heated 1 hr at 65 °C, stored overnight at 4 °C, measured the next day
[2] = target: T1, recombinant human alpha-synuclein …; test: super-resolution imaging in differentiated SH-SY5Y cells loaded with AS aggregates; SynO4 delivered by TF-liposomes
[3] = target: T1, recombinant human alpha-synuclein …; test: ELISA on AS aggregates; antibody pre-heated 1 hr at 65 °C, measured immediately
[4] = target: T1, recombinant human alpha-synuclein …; test: super-resolution microscopy; Cy3-SynO4 and Alexa Fluor 488-AS aggregates in differentiated SH-SY5Y cells

maximal activity [1]: 44%
detection between antibody and aggregates [2]: > 80%
maximal activity [3]: 22%
colocalization [4]: 75%
B1: SynO4 antibody (Creative Biolabs, USA) (antibody)
chain 1: EVQLVESGGGLVQPKGSLKLSCAASGFTFNTYAMHWVRQAPGKGLEWVARIRSKSSNYATYYADSVKDRFTISRDDSQSMLYLQMNNLKTEDTAMYYCVRPLKWYFDVWGTGTTVTVSS
chain 2: QIVLTQSPAILSASPGEKVTMTCSASSTVNYMHWYQQKSGTSPKIWIYDTSKLASGVPARFSGSGSWTSYSLTISSMEAEDAATYYCQQWNSNPPTFGAGTKLELK
